These results are taken from publication PMC2110890, “Glutathione mediated regulation of oligomeric structure and functional activity of Plasmodium falciparum glutathione S-transferase” (BMC Structural Biology, 2007).

The term stoichiometry N denotes the number of molecules, sites or subunits per partner or assembly.

In series [1] the target is human GST (human) (UniProt P09211). In words: SEC; Superdex 200 10/300 GL, 100 mM potassium phosphate pH 8.0, 1 mM EDTA, 25°C; incubated and run with GSH at 0.7 mM or more (2 mM GSH in Figures 1B and 3). On the technique in general: SEC sorts molecules by how far they enter the pores of the column.
Series [2] has the same target. In words: SEC; Superdex 200 10/300 GL, 100 mM potassium phosphate pH 8.0, 1 mM EDTA, 0.3 mL/min, 25°C; incubated and run without GSH.
For series [3] the target is unchanged. In words: cross-linking; 1% glutaraldehyde, 30 min, room temperature, protein 50 μg/mL, 10% SDS-PAGE; sample incubated with GSH.
The target is the same in series [4]. In words: cross-linking; 1% glutaraldehyde, 30 min, room temperature, protein 50 μg/mL, 10% SDS-PAGE; sample without GSH.
Series [5] concerns the molecule itself. In words: SEC; GSH-stabilized dimer dialysed for 4 h against buffer without GSH, then loaded on the column.
Series [6] concerns the molecule itself. In words: SEC; Superdex 200 10/300 GL, 100 mM potassium phosphate pH 8.0, 1 mM EDTA, 25°C; incubated and run with GSH at 0.7 mM or more (2 mM GSH in Figures 1B and 3).
Series [7] concerns the molecule itself. In words: SEC; Superdex 200 10/300 GL, 100 mM potassium phosphate pH 8.0, 1 mM EDTA, 0.3 mL/min, 25°C; incubated and run without GSH.

On to “human GST (from UniProt P09211 1-210) (enzyme)”, for which the stoichiometry N in the series with human GST (human) [1], in the series with human GST (human) [2], with human GST (human) [3] and in the series with human GST (human) [4] was 2 throughout.

B1: Plasmodium falciparum glutathione S-transferase (enzyme, UniProt Q8ILQ7 1-211, looked up)
chain: MGDNIVLYYFDARGKAELIRLIFAYLGIEYTDKRFGVNGDAFVEFKNFKKEKDTPFEQVPILQIGDLILAQSQAIVRYLSKKYNICGESELNEFYADMIFCGVQDIHYKFNNTNLFKQNETTFLNEDLPKWSGYFEKLLKKNHTNNNNDKYYFVGNNLTYADLAVFNLYDDIETKYPSSLKNFPLLKAHNEFISNLPNIKNYITNRKESVY
notes: Glutathione S-transferase of Plasmodium falciparum (PfGST), recombinant, about 26 kDa on SDS-PAGE; The chain is a homotetramer without GSH and a homodimer at GSH of 0.7 mM or more, so copies is left empty; also called PfGST; recombinant PfGST; source: E. coli M15, purified (Ni-NTA agarose)
For B1, the “ratio of dimer to tetramer” value in series [5] was ~0.33 dimer:tetramer. The “stoichiometry N” value in series [6] worked out at 2; in series [7], 4.
